Patent US20040116333A1 (ABGENOMICS COOPERATIEF U A, published 2004)

T1: recombinant mouse P-selectin/Fc chimera (R&D Systems) (mouse; human, UniProt Q01102 42-709)
T1 construct: range 42-709; The CD33 signal peptide (Met1-Ala16) of the construct is left out; also called mouse P-Selectin fused to the Fc region of human IgG1; P-selectin-Fc fusion protein; not shown: Human IgG1 constant region, Pro100-Lys330
T1 sequence: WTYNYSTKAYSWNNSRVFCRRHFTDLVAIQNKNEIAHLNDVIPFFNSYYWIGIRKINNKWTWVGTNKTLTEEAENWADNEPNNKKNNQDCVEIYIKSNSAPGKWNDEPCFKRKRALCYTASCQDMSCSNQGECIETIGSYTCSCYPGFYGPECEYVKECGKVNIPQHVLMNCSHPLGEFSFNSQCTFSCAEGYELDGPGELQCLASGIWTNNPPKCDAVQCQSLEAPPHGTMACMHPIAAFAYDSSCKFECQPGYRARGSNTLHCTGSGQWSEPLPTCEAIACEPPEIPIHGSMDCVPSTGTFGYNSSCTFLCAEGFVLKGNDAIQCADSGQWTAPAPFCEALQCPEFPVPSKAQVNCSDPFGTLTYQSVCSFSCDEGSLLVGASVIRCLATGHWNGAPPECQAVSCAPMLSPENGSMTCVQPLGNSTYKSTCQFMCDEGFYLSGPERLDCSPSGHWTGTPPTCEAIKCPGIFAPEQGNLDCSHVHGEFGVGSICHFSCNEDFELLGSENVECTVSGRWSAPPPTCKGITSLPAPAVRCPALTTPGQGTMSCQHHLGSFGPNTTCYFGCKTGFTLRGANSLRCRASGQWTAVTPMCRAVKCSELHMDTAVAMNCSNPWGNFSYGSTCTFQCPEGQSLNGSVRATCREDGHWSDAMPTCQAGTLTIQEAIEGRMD


Assays:
[1] = target: human P-selectin glycoprotein ligand-1 (PSGL-1) (human) (UniProt Q14242); assay: cell-based or functional assay
[2] = target: T1, recombinant mouse P-selectin/Fc chimera …; assay: flow cytometry on Con A-activated mouse T cells, FITC-anti human IgG Fc detection
Procedure: To determine ability of selectins (P-Selectin, E-Selectin, and L-Selectin) to bind to activated T cells, freshly prepared splenocytes from C57BL/6 mice were activated and harvested at days 2, 4, and 6. Non-activated T cells (i.e., freshly prepared splenocytes at day 0) were also analyzed. The day 2 sample constituted 3×10⁶ cells/ml of splenocytes that were activated with 2 ug/ml of Concanavalin A (Con A) in DMEM+10% FBS for 2 days. Live cells were isolated by Ficoll gradient separation. The day 4 sample was obtained from cells that were activated with Con A for 3 days and maintained in medium containing 5 ng/ml of IL-2 for an additional day. The day 6 sample was derived from cells that were activated with Con A for 3 days and maintained in 5 ng/ml of IL-2 for 3 days.
To assay the samples by FACS analysis, 2×10⁵ cells per well from days 0, 2, 4 and 6 were incubated at 4° C. for 30 minutes with 40 ul/well of mouse P-Selectin, E-Selectin, or L-Selectin fused to the Fc region of human IgG1 (R&D Systems, Minneapolis, Minn.) at concentrations ranging from 20 ug/ml with two-fold serial dilution to 0.156 ug/ml. Following the incubation, cells were washed with 1× FACScan buffer (1×PBS without calcium and magnesium ions from Biochrom AG, Berlin and 2% FBS). […]

Chain of human P-selectin glycoprotein ligand-1 (PSGL-1) (human) (Q14242 42-412): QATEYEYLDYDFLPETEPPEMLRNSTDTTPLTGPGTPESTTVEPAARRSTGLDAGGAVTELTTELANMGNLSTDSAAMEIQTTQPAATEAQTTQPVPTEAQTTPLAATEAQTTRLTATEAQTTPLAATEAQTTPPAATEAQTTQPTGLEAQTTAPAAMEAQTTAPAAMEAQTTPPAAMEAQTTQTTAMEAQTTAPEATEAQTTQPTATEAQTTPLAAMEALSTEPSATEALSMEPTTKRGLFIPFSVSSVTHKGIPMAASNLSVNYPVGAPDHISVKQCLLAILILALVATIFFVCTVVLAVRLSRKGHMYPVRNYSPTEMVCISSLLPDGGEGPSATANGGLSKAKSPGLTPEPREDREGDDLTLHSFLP

Molecule | percentage of apoptotic cells (Annexin V / PI, FACS) in PHA-activated human PBMC, day 3, with rabbit anti-mouse Ig cross-linker [1] | percentage of apoptotic cells (Annexin V / PI, FACS) in PHA-activated human PBMC, day 8, with rabbit anti-mouse Ig cross-linker [1] | binding result [2]
anti-PSGL-1 antibody clone KPL-1 (BD PharMingen) | 8.5% | 24% | –
mouse P-selectin glycoprotein ligand-1 (PSGL-1), first designated T cell apoptosis inducing protein (TAIP) (receptor, UniProt Q62170 42-397, looked up, whole, on cells; Endogenous protein on mouse T cells; For immunoprecipitation and western blot it was solubilised from RL1 T cell lysates; also called TAIP antigen; CD162) QVVGDDDFEDPDYTYNTDPPELLKNVTNTVAAHPELPTTVVMLERDSTSAGTSERATEKIATTDPTAPGTGGTAVGMLSTDSATQWSLTSVETVQPASTEVETSQPAPMEAETSQPAPMEAETSQPAPMEAETSQPAPMEADTSQPAPMEAETSQPAPNEAETSKPAPTEAETSKPAPTEAETTQLPRIQAVKTLFTTSAATEVPSTEPTTMETASTESNESTIFLGPSVTHLPDSGLKKGLIVTPGNSPAPTLPGSSDLIPVKQCLLIILILASLATIFLVCTVVLAVRLSRKTHMYPVRNYSPTEMICISSLLPEGGDGAPVTANGGLPKVQDLKTEPSGDRDGDDLTLHSFLP | – | – | binds
